Data reported in paper PMC10693867 (Journal for Immunotherapy of Cancer, 2023).

Molecular target: CD1d(endogenous lipid)-β2M complex, as crystallized with VHH1D17 (Homo sapiens, UniProt P15813;P61769)

binding result: binds
B1: VHH1D5 (VHH)
VHH: EVQLVESGGGLVQAGGSLRLSCAASGSSFSSYTMGWFRQAPGKEREIVAGIRWSDESPIYADSVKGRFTISRDNAKNTLYLQMNSLKPEDTAVYYCAARLVPPGIPIPRTSESMRYWGKGTLVTVSS
